The subject of data set [1] is rSarA (Staphylococcus aureus strain Newman). Briefly: EMSA. The following applies: Gel shift buffer not stated (performed as reported earlier); rSarA kept in buffer A: 20 mM phosphate pH 8.0, 100 mM NaCl, 5% glycerol; binding temperature not …. (In general: Mobility shift assays separate free from complexed probe on a gel.)
Data set [2] deals with the molecule itself. Description: SEC; analytical gel filtration of rSarA (20 uM) without denaturant; apparent mass from the elution volumes of monomeric marker proteins. Background: Size exclusion chromatography separates by hydrodynamic size, large species first.

Take hla DNA: the K half in data set [1] is 286 nM.

B1: rSarA (a C-terminally histidine-tagged SarA) (natural protein)
chain: MAITKINDCFELLSMVTYADKLKSLIKKEFSISFEEFAVLTYISENKEKEYYLKDIINHLNYKQPQVVKAVKILSQEDYFDKKRNEHDERTVLILVNAQQRKKIESLLSRVNKRITEANNEIEL
notes: the cloning attached eight additional residues at the C-terminal end of SarA; Leu 125 and Glu 126 of rSarA lie in the tag; also called recombinant SarA; not shown: His6 (eight additional residues including six histidine residues), C-terminal, kept
With B1, the “stoichiometry N” value in data set [2] was found to be 2.

In general, stoichiometry N refers to the number of molecules, sites or subunits per partner or assembly.

The record behind these values is article PMC4379015, “Chemical and Thermal Unfolding of a Global Staphylococcal Virulence Regulator with a Flexible C-Terminal End” (PLoS ONE, 2015).
